Measured values reported in the RNAGym collection of RNA variant scans (doi:10.1073/pnas.2313332121).

B1: TPR t1 (parent)
chain: GACCAAUCUGCCCUCAGAGCUCGAGAACAUCUUCGGAUGCAGAGGAGGCAGGCUUCGGUGGCGCGAUAGCGCCAACGUCCUCAACCUCCAAUGCAUCCCACCACAUGAUGAUGCCUGAAGAGCCUUGGUUUUUUG

Variants of: B1
Assay: polymerase ribozyme fitness, log enrichment relative to wild type (log ratio); higher = more active; in vitro selection for triplet polymerase activity
Procedure, shortened: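 Mutant libraries were PCR-built and transcribed for each subunit of a heterodimeric triplet polymerase ribozyme and selected for one round in triplicate at −7 °C, frozen, before gel excision of extended constructs and streptavidin-bead capture. Input and output libraries were Illumina-sequenced, keeping genotypes with ≥10 input reads and ≥1 read per output. Fitness is a logarithmic ratio of genotype to wild-type enrichment, in base 2, using inverse-variance-weighted replicate averages.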
For C15U G61A C82U C85A C86G, the “polymerase ribozyme fitness (log ratio)” value was -2.18. With C15U G63A C79A C97U U112G the “polymerase ribozyme fitness (log ratio)” value was -4.94. With C15U G63C the “polymerase ribozyme fitness (log ratio)” value was -2.18. In the case of C15U G65A G69U U87G, the “polymerase ribozyme fitness (log ratio)” value is reported as -4.77. For C15U G69U U78C, the “polymerase ribozyme fitness (log ratio)” value was -0.901. In the case of C15U G71U, the “polymerase ribozyme fitness (log ratio)” value is reported as -1.38. For C15U G93A, the “polymerase ribozyme fitness (log ratio)” value was -1.99. For C15U G113U, the “polymerase ribozyme fitness (log ratio)” value was -3.92. In the case of C15U G120A, the “polymerase ribozyme fitness (log ratio)” value is reported as -1.08. For C15U G120U, the “polymerase ribozyme fitness (log ratio)” value was -0.697. In the case of C15U G122A, the “polymerase ribozyme fitness (log ratio)” value is reported as -1.11. In the case of C15U U54A C80A, the “polymerase ribozyme fitness (log ratio)” value is reported as -4.07. With C15U U81G C82G A119G G120U C123A the “polymerase ribozyme fitness (log ratio)” value was -0.519. In the case of C15U U87A, the “polymerase ribozyme fitness (log ratio)” value is reported as -2.53. For C15U U96A A119G, the “polymerase ribozyme fitness (log ratio)” value was 0.622. In the case of C15U U132A, the “polymerase ribozyme fitness (log ratio)” value is reported as -0.984. With A16C the “polymerase ribozyme fitness (log ratio)” value was -2.19. With A16C C20U C70U the “polymerase ribozyme fitness (log ratio)” value was -4.3. With A16C C49G C101A the “polymerase ribozyme fitness (log ratio)” value was -4.66. With A16C C49U G60U U78A the “polymerase ribozyme fitness (log ratio)” value was -3.42. With A16C C53U the “polymerase ribozyme fitness (log ratio)” value was -2.99. For A16C C56G G77U C115G, the “polymerase ribozyme fitness (log ratio)” value was -3.78. For A16C C64G G69U C94G G110U, the “polymerase ribozyme fitness (log ratio)” value was -4.25. In the case of A16C C72A, the “polymerase ribozyme fitness (log ratio)” value is reported as -3.3. In the case of A16C C72A G110U, the “polymerase ribozyme fitness (log ratio)” value is reported as -3.99. For A16C C79U U87A C124U, the “polymerase ribozyme fitness (log ratio)” value was -0.106. For A16C C82U G110A C123G U132A, the “polymerase ribozyme fitness (log ratio)” value was -4.33. With A16C C89U U106A the “polymerase ribozyme fitness (log ratio)” value was -2.64. For A16C C98U G110A C124A, the “polymerase ribozyme fitness (log ratio)” value was -4.72. In the case of A16C C115G, the “polymerase ribozyme fitness (log ratio)” value is reported as -3.37. In the case of A16C C123G, the “polymerase ribozyme fitness (log ratio)” value is reported as -0.273. With A16C G42A the “polymerase ribozyme fitness (log ratio)” value was -3.47. For A16C G42U G57C A118U, the “polymerase ribozyme fitness (log ratio)” value was -2.43. For A16C G45C U59A C72A U112C G135U, the “polymerase ribozyme fitness (log ratio)” value was -4.45. For A16C G52A, the “polymerase ribozyme fitness (log ratio)” value was -1.81. For A16C G120A, the “polymerase ribozyme fitness (log ratio)” value was -2.28. With A16C U87A the “polymerase ribozyme fitness (log ratio)” value was -2.49. In the case of A16G, the “polymerase ribozyme fitness (log ratio)” value is reported as -0.761. In the case of A16G A29G G44A U87G A121C, the “polymerase ribozyme fitness (log ratio)” value is reported as -2.16. With A16G A75U C123U the “polymerase ribozyme fitness (log ratio)” value was -0.477. With A16G C40A C86U A90U A91C U106A U112G the “polymerase ribozyme fitness (log ratio)” value was -4.19. In the case of A16G C40G, the “polymerase ribozyme fitness (log ratio)” value is reported as -0.424. With A16G C49A A68G C73U the “polymerase ribozyme fitness (log ratio)” value was -4.78. In the case of A16G C49A C88A C99A C102U C114U, the “polymerase ribozyme fitness (log ratio)” value is reported as -4.49. For A16G C53G U87G U96A U112A, the “polymerase ribozyme fitness (log ratio)” value was -1.33. For A16G C64U G77U, the “polymerase ribozyme fitness (log ratio)” value was -1.55. For A16G C70A A95C, the “polymerase ribozyme fitness (log ratio)” value was -4.17. For A16G C70U C115A U125C, the “polymerase ribozyme fitness (log ratio)” value was -2.39. With A16G C73A A90C the “polymerase ribozyme fitness (log ratio)” value was -3.02. For A16G C86U, the “polymerase ribozyme fitness (log ratio)” value was -1.54. In the case of A16G G44A C97G U112C U133A, the “polymerase ribozyme fitness (log ratio)” value is reported as -4.45. With A16G G47A the “polymerase ribozyme fitness (log ratio)” value was -2.15. In the case of A16G G47C C56U A74U A121G G128C, the “polymerase ribozyme fitness (log ratio)” value is reported as -3.74. For A16G G48A U126G, the “polymerase ribozyme fitness (log ratio)” value was -4.19. For A16G G52A U116C, the “polymerase ribozyme fitness (log ratio)” value was 0.826. In the case of A16G G60A U81A G117U, the “polymerase ribozyme fitness (log ratio)” value is reported as -4.21. In the case of A16G G60U A90U, the “polymerase ribozyme fitness (log ratio)” value is reported as -2.82. In the case of A16G G60U G107U C124G, the “polymerase ribozyme fitness (log ratio)” value is reported as -4.06. For A16G G61C, the “polymerase ribozyme fitness (log ratio)” value was -2.19. With A16G G69U C73A C115U the “polymerase ribozyme fitness (log ratio)” value was -1.93. In the case of A16G G77A C85G, the “polymerase ribozyme fitness (log ratio)” value is reported as -3.69. For A16G U54C, the “polymerase ribozyme fitness (log ratio)” value was -1.39. For A16G U92G C98G C114A, the “polymerase ribozyme fitness (log ratio)” value was -6.53. For A16U, the “polymerase ribozyme fitness (log ratio)” value was -1.46. For A16U A18U, the “polymerase ribozyme fitness (log ratio)” value was -3.06. In the case of A16U A18U U133A, the “polymerase ribozyme fitness (log ratio)” value is reported as -4.63. With A16U A24G C115G the “polymerase ribozyme fitness (log ratio)” value was -6.98. In the case of A16U A29U U30A A41C C49G A90G G120C, the “polymerase ribozyme fitness (log ratio)” value is reported as -6.59. With A16U A29U U54A G63U the “polymerase ribozyme fitness (log ratio)” value was -3.53. For A16U A37C G71U A111U, the “polymerase ribozyme fitness (log ratio)” value was -5.61. In the case of A16U A37U G69U U106C G120U, the “polymerase ribozyme fitness (log ratio)” value is reported as -0.0765. With A16U A41G G63U C115U the “polymerase ribozyme fitness (log ratio)” value was -4.47. In the case of A16U A41G U78G A100U, the “polymerase ribozyme fitness (log ratio)” value is reported as -3.98. For A16U A50G U96A U112C G127C, the “polymerase ribozyme fitness (log ratio)” value was -2.27. For A16U C20A C64U U87C U130C, the “polymerase ribozyme fitness (log ratio)” value was -4.77. For A16U C20A C73G G117U A119U, the “polymerase ribozyme fitness (log ratio)” value was -5.33. With A16U C22U the “polymerase ribozyme fitness (log ratio)” value was -3.56. For A16U C34A C64A U109G C123A U129G, the “polymerase ribozyme fitness (log ratio)” value was -6.08. For A16U C34A U109G C123A U129G, the “polymerase ribozyme fitness (log ratio)” value was -5.83. With A16U C56A the “polymerase ribozyme fitness (log ratio)” value was -1.97. For A16U C56A G69U G117U, the “polymerase ribozyme fitness (log ratio)” value was -2.35. With A16U C56G C115A the “polymerase ribozyme fitness (log ratio)” value was -4.04. In the case of A16U C56G U125A, the “polymerase ribozyme fitness (log ratio)” value is reported as -3.24. In the case of A16U C56U U87A A103U U112A, the “polymerase ribozyme fitness (log ratio)” value is reported as -4.76.
